According to patent US20100041612A1 (published 2010):
Ends that are not written are not given here.

Key:
[1] = target: wild-type human GLP-1 receptor (human, UniProt P43220 24-463); assay: cell-based or functional assay
[2] = target: hyperactive human GLP-1 receptor variant (human); assay: cell-based or functional assay

Binder	cAMP production (radioimmunoassay), half maximal excitatory concentration (EC50) [1] [µM]	cAMP production (radioimmunoassay), EC50 [2] [µM]	cAMP production, fold potency increase against the same peptide at the wild type receptor [2] [fold]	cAMP production (radioimmunoassay), EC50 [1] [µM]	cAMP production, fold potency increase against GLP-1 (7-20) amide without biphenylalanine [1] [fold]	cAMP production, fold higher potency against GLP-1 (7-20) amide -bpa at the hyperactive receptor [2] [fold]
HAEGTFTSDVSSYL-NH2 [GLP-1 (7-20) amide]	240	24	10	–	–	–
HAEGTFTSDVSSYL-biphenylalanine (not fully specified) [GLP-1 (7-20) carboxy-terminal tethered with biphenylalanine]	–	2	–	11	22	10
